Assay results published in the supplement of paper PMC10567573.

B1: ANKRD9 (parent)
chain: VGAAGSARQELLGDRPRWQRLLGE
B2: BRF1 (parent)
chain: FVESSGGGSSAVGQFVSLDGAGKT

Variants of: B1
Test: protein stability index of a GFP-peptide fusion (GPS, HEK-293T) (PSI 1-6); higher = more stable
Settings: c terminus: a fixed tail appended
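Further: lentivirally expressed fusions sorted by FACS into six bins by GFP to DsRed ratio, PSI derived from sequencing read proportions per bin multiplied by bin number.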

Protein stability index: each site, then its substitutions
E10: I 2.4; M 2.63
P16: L 3.12; M 2.94
Q9: S 3.46
L22: Y 2.42; A 3.43
R8: A 2.96; E 4.01
R17: D 3.41; W 2.61
V1: Q 3.7; Y 2.56
G13: M 3.02; V 2.63
W18: T 4.63
L12: I 4.09; W 2.35
A7: E 5
G2: I 2.67
E24: L 2.38; G 3.2; T 3
L21: I 2.93; D 4.72; Y 2.28
G23: L 3.58; K 3.19
L11: Y 3.5
A4: Q 4.11
G5: N 2.9; I 2.69; H 2.68; Q 3.09; T 2.3

Variants of: B2
Test: as above
Settings: c terminus: a fixed tail appended

Protein stability index, by site and new letter:
L18: M 2.55; N 3.25; V 2.95; K 2.3; C 2.5; Y 1.85; F 1.83; G 2.15; T 2.04; W 1.58; R 2; I 2.69; D 2.58; E 3.8; P 2.12; Q 2.88; H 3.25; A 2.5; S 2.66
D19: Q 1.98; G 1.69; S 1.59; K 2.55; C 1.72; A 1.72; W 3.02; H 2.27; F 1.48; P 2.26; T 1.59; M 2.17; V 1.12; N 2.02; E 2.56
A21: W 1.73; R 2.66; V 1.92; F 1.33; N 2.56; Q 2.03; I 1.96; E 3.23; K 2.43; H 2.13; Y 1.91; C 1.81; S 2.15; D 3.36; L 1.8; P 1.95; G 2.6; T 2.54; M 2.32
S17: W 2.87; T 2.29; V 1.99; Y 2.45
G22: I 2.62; K 1.73; Y 1.9; L 1.6; W 1.84; C 1.79; D 3.15; V 2.29; F 2.35; N 2.39; S 2.47; E 3.08; H 2.65; R 1.87; T 2.09; A 3; P 3.13; Q 2.26
K23: Y 2.05; F 1.59; H 2.24; G 2.38; Q 2.01; T 2.55; W 2.28; V 2.12; A 2.04; E 2.56; S 2; P 2.73; R 2.21; N 2.19; I 2.02; D 2.68; C 2.23; L 2.21; M 2.16
T24: N 2.15; A 2.98; I 2.59; Q 2.86; P 2.48; Y 1.85; W 2.24; V 2.33; D 2.72; F 1.62; E 2.3; H 1.79; G 2.26; S 2.19; K 2.44; M 2; R 3.12; L 2.02; C 2.27
G20: F 2.6; L 2.58; M 1.76; K 1.72; W 2.34; A 2.41; Q 3.03; I 2.16; T 2.21; N 2.32; Y 1.6; S 1.75; D 2.43; C 2.41; E 2.55; P 2.13; R 2.32; V 2.41; H 2.55
